The values below come from publication PMC9019556, “Molecular interactions of STAC proteins with skeletal muscle dihydropyridine receptor and excitation‐contraction coupling” (Protein Science : A Publication of the Protein Society, 2022).

The target in the assay is T1, full-length II–III loop of the skeletal muscle dihydropyridine receptor α1S subunit (UniProt P07293 665-785).
T1 construct: cytosolic II–III loop of the DHPR α1S subunit (skeletal muscle voltage-dependent L-type calcium channel), 115 amino acids; The methods' sentence 'genes for human STAC2SH3s and the DHPR II–III loop' leaves open whether the loop is human; Used unlabelled (SPR, immobilised) and 15N-labelled (NMR); also called DHPR II–III loop; full II–III loop
T1 sequence (looked up): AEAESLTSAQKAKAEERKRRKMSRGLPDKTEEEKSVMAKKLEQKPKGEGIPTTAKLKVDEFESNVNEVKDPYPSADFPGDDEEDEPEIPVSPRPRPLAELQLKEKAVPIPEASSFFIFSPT
Description: SPR; full DHPR II–III loop immobilised on a CM5 chip by amine coupling; STAC proteins flowed over at 30 μL/min for 120 s; Biacore 8K, 20°C; 10 mM HEPES-HCl pH 7.4, 150 mM NaCl, 0.05% Tween-20, 3 mM EDTA; affinity curve. Conditions: both partners purified. On the technique in general: SPR reads the build-up and loss of mass on a sensor chip optically.

B1: tandem SH3 domains of STAC2 (domain or fragment, human)
chain: SYVALYKFLPQENNDLALQPGDRIMLVDDSNEDWWKGKIGDRVGFFPANFVQRVRPGENVWRCCQPFSGNKEQGYMSLKENQICVGVGRSKDADGFIRVSSGKKRGLVPVDALTEI
notes: human STAC2, tandem SH3 domains (SH3_1 and SH3_2) at the C-terminal end; Used unlabelled (SPR) and 15N-labelled (NMR); also called STAC2SH3s
Regarding B1, the Kd – broadly, the free concentration of one partner at which half of the binding sites on the other are occupied at equilibrium, for simple one-to-one binding – was 22.6 µM.

B2: tandem SH3 domains of STAC3 (SH3 and cysteine-rich domain-containing protein 3) (domain or fragment, human)
chain: GFQQSHYFVALYRFKALEKDDLDFPPGEKITVIDDSNEEWWRGKIGEKVGFFPPNFIIRVRAGERVHRVTRSFVGNREIGQITLKKDQIVVQKGDEAGGYVKVYTGRKVGLFPTDFLEEI
notes: human STAC3, tandem SH3 domains (SH3_1 and SH3_2) at the C-terminal end; Used unlabelled (SPR, titrant in NMR) and 15N-labelled (NMR titration with the C3 peptide); also called STAC3SH3s
B2 came in with a Kd of 21 µM.
